Results: the supplement of paper PMC10126150
± gives the standard deviation of the averaged measurements.
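Further: ATP exposure 15 min at 22 °C before imaging.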

These sequences were tested on ATP (assay: switch fluorescence ratio, 500 uM ATP over buffer (Cy3 cluster intensity, sum of 5 cycles each) (fold (ratio)); higher = stronger signal-on switching upon ATP binding; sequences stand for … in TCGTCGGCAGCGTCAGATGTGTATAAGAGACAGTTTTTTTTTTTTTTTTTTTTTTTTT…TC). Conditions: aptamer strand: ATP DNA aptamer (quencher-CACCTGGGGGAGTATTGCGGAGGAAGG + anchor), 100 nM annealed; ATP concentration: 500 uM.
How it was run: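 Values give the fluorescence ratio for each switch-domain sequence, averaged from per-cluster ratios of summed target-cycle to summed buffer-cycle Cy3 intensity. The Cy3-labelled switching-strand clusters sat on a modified Illumina MiSeq flow-cell, were annealed to 100 nM quencher-labelled ATP aptamer, and were imaged in selection buffer, then after 15 min with 500 uM ATP at 22 °C. Five cycles ran with NaOH stripping and re-annealing between them, and clusters outside 100-1000 RFU were excluded.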
With CCTAACGCAG the switch fluorescence ratio was 2.32 ± 0.43.
Sequence CCTAATTTTA has a switch fluorescence ratio of 0.971 ± 0.043.
Sequence CCTACGGAAG has a switch fluorescence ratio of 2.07 ± 0.045.
CCTAGCAAGT gave a switch fluorescence ratio of 3.19 ± 0.92.
Work on CCTAGCCTGC yielded a switch fluorescence ratio of 1.16 ± 0.054.
CCTAGCGGTT showed a switch fluorescence ratio of 1.1459 ± 0.00038.
In the case of CCTAGGGAGC, the switch fluorescence ratio is reported as 1.07 ± 0.1.
Work on CCTAGGGGGC yielded a switch fluorescence ratio of 1.24 ± 0.29.
In the case of CCTAGGGGGG, the switch fluorescence ratio is reported as 1.17 ± 0.23.
Sequence CCTAGTCGGC has a switch fluorescence ratio of 1.0715 ± 0.00095.
For CCTAGTGTTC, the switch fluorescence ratio was 0.9801 ± 0.0083.
For CCTAGTTCGG, the switch fluorescence ratio was 0.997 ± 0.027.
CCTATAGAGT gave a switch fluorescence ratio of 0.964 ± 0.02.
With CCTATATTAA the switch fluorescence ratio was 0.9853 ± 0.0066.
Sequence CCTATGGTTG has a switch fluorescence ratio of 0.997 ± 0.033.
CCTATTACTT showed a switch fluorescence ratio of 1 ± 0.034.
In the case of CCTATTATTT, the switch fluorescence ratio is reported as 1 ± 0.051.
CCTCATTGAC gave a switch fluorescence ratio of 2.24 ± 0.15.
CCTCGAGGGT gave a switch fluorescence ratio of 1.09 ± 0.07.
CCTCGATTCA showed a switch fluorescence ratio of 1.03 ± 0.017.
CCTCTACTGG gave a switch fluorescence ratio of 1.12 ± 0.042.
CCTCTGGGGA gave a switch fluorescence ratio of 1.82 ± 0.94.
For CCTGAAAGGT, the switch fluorescence ratio was 1.003 ± 0.0079.
CCTGACAGCG was tested, and the switch fluorescence ratio was 1.012 ± 0.0083.
Work on CCTGAGAGAG yielded a switch fluorescence ratio of 1.034 ± 0.0052.
With CCTGAGGAGG the switch fluorescence ratio was 0.997 ± 0.014.
For CCTGATCGAT, the switch fluorescence ratio was 1.01 ± 0.02.
Work on CCTGATGGGG yielded a switch fluorescence ratio of 1.01 ± 0.017.
For CCTGATTGAA, the switch fluorescence ratio was 0.991 ± 0.0088.
Work on CCTGCATTTT yielded a switch fluorescence ratio of 1.3 ± 0.33.
For CCTGCCAAGA, the switch fluorescence ratio was 2 ± 1.4.
In the case of CCTGCGGGG, the switch fluorescence ratio is reported as 1.11 ± 0.022.
CCTGCGTAAG showed a switch fluorescence ratio of 2.29 ± 0.11.
With CCTGCTAAGT the switch fluorescence ratio was 1 ± 0.058.
CCTGGAAATT was tested, and the switch fluorescence ratio was 1.02 ± 0.023.
CCTGGATATT gave a switch fluorescence ratio of 0.997 ± 0.013.
In the case of CCTGGGCCCA, the switch fluorescence ratio is reported as 1.09 ± 0.15.
CCTGGGTGGG gave a switch fluorescence ratio of 1.12 ± 0.065.
CCTGGGTTTC gave a switch fluorescence ratio of 1.008 ± 0.0052.
Sequence CCTGGGTTTT has a switch fluorescence ratio of 1.06 ± 0.05.
Sequence CCTGGTAAGT has a switch fluorescence ratio of 1.04 ± 0.051.
In the case of CCTGGTGGGA, the switch fluorescence ratio is reported as 0.999 ± 0.014.
Sequence CCTGTCATGT has a switch fluorescence ratio of 1.02 ± 0.013.
CCTGTGAGGT showed a switch fluorescence ratio of 1.01 ± 0.045.
For CCTGTGTTCG, the switch fluorescence ratio was 1 ± 0.025.
CCTGTTAGCT showed a switch fluorescence ratio of 1.15 ± 0.076.
CCTGTTTTAT was tested, and the switch fluorescence ratio was 0.9953 ± 0.0051.
CCTGTTTTCG was tested, and the switch fluorescence ratio was 1.06 ± 0.05.
For CCTGTTTTTA, the switch fluorescence ratio was 0.986 ± 0.024.
For CCTTACAGCT, the switch fluorescence ratio was 1.2 ± 0.044.
CCTTAGGGGC was tested, and the switch fluorescence ratio was 1.03 ± 0.026.
Sequence CCTTATAAA has a switch fluorescence ratio of 1 ± 0.018.
In the case of CCTTATTAGT, the switch fluorescence ratio is reported as 0.984 ± 0.012.
CCTTATTGGG was tested, and the switch fluorescence ratio was 1.05 ± 0.037.
With CCTTCTTGGG the switch fluorescence ratio was 1.015 ± 0.0033.
In the case of CCTTGCCGTT, the switch fluorescence ratio is reported as 0.99 ± 0.017.
In the case of CCTTGGGTAT, the switch fluorescence ratio is reported as 1.01 ± 0.034.
For CCTTGGGTTG, the switch fluorescence ratio was 1.03 ± 0.032.
Work on CCTTTAAAAT yielded a switch fluorescence ratio of 1.4 ± 0.41.
With CCTTTGAGAT the switch fluorescence ratio was 1.03 ± 0.022.
CCTTTGGGGT was tested, and the switch fluorescence ratio was 1.69 ± 1.2.
CCTTTGTTTT gave a switch fluorescence ratio of 1.05 ± 0.091.
Work on CCTTTTAGGT yielded a switch fluorescence ratio of 0.9846 ± 0.0043.
In the case of CCTTTTCGAG, the switch fluorescence ratio is reported as 1.037 ± 0.0025.
With CCTTTTCGCG the switch fluorescence ratio was 1.106 ± 0.0051.
With CCTTTTGGAT the switch fluorescence ratio was 1.07 ± 0.073.
CCTTTTGGCT showed a switch fluorescence ratio of 0.964 ± 0.014.
Sequence CGAAAAGAGG has a switch fluorescence ratio of 1.1 ± 0.26.
CGAAAAGGGA showed a switch fluorescence ratio of 1.01 ± 0.029.
For CGAAAATGCC, the switch fluorescence ratio was 1.02 ± 0.023.
CGAAAATTCA showed a switch fluorescence ratio of 1.02 ± 0.0077.
Sequence CGAAAATTCG has a switch fluorescence ratio of 1.03 ± 0.048.
Sequence CGAAACCGAC has a switch fluorescence ratio of 2.17 ± 1.2.
Sequence CGAAAGGCTA has a switch fluorescence ratio of 1.15 ± 0.18.
For CGAAAGGGGA, the switch fluorescence ratio was 1.03 ± 0.018.
For CGAAATATCT, the switch fluorescence ratio was 1.04 ± 0.058.
Sequence CGAAATTGTG has a switch fluorescence ratio of 1.02 ± 0.022.
Sequence CGAACTGAAG has a switch fluorescence ratio of 0.975 ± 0.026.
In the case of CGAACTTGTT, the switch fluorescence ratio is reported as 1.01 ± 0.04.
CGAAGACTGC showed a switch fluorescence ratio of 1.19 ± 0.12.
For CGAAGAGGAG, the switch fluorescence ratio was 0.981 ± 0.011.
Sequence CGAAGCATTT has a switch fluorescence ratio of 3.73 ± 0.14.
CGAAGGGCG showed a switch fluorescence ratio of 1.03 ± 0.029.
Work on CGAAGTACCG yielded a switch fluorescence ratio of 1.08 ± 0.011.
CGAAGTGGGG gave a switch fluorescence ratio of 1.01 ± 0.026.
CGAAGTGGTC was tested, and the switch fluorescence ratio was 0.995 ± 0.059.
Work on CGAAGTGTTT yielded a switch fluorescence ratio of 1 ± 0.02.
Work on CGAAGTTTGC yielded a switch fluorescence ratio of 1.23 ± 0.33.
In the case of CGAATAGCTT, the switch fluorescence ratio is reported as 1.01 ± 0.062.
CGAATGCGTT gave a switch fluorescence ratio of 0.973 ± 0.021.
For CGAATGGGGT, the switch fluorescence ratio was 0.985 ± 0.039.
In the case of CGAATGGTAA, the switch fluorescence ratio is reported as 1.05 ± 0.051.
CGAATTAGTT showed a switch fluorescence ratio of 0.978 ± 0.045.
CGAATTTAAG gave a switch fluorescence ratio of 1.009 ± 0.0062.
CGAATTTTAT was tested, and the switch fluorescence ratio was 0.976 ± 0.039.
With CGAATTTTTT the switch fluorescence ratio was 0.9539 ± 0.0064.
CGACACCGTT showed a switch fluorescence ratio of 1.03 ± 0.056.
Sequence CGACACTATT has a switch fluorescence ratio of 1.06 ± 0.034.
CGACAGGTTC gave a switch fluorescence ratio of 1.0621 ± 0.00069.
For CGACCATAGA, the switch fluorescence ratio was 1.07 ± 0.045.
